{
  "source": "patent US20130280298A1",
  "about": "(FOLIA BIOTECH, published 2013)",
  "binders": {"B1": {"name": "PapMV HAV-ANP2 (designed binder)", "chain": "MASTPNIAFPAITQEQMSSIKVDPTSNLLPSQEQLKSVSTLMVAAKVPAASVTTVALELVNFCYDNGSSAYTTVTGPSSIPEISLAQLASIVKASGTSLRKFCRYFAPIIWNLRTDKMAPANWEASGYKPSAKFAAFDFFDGVENPAAMQPPSGLTRSPTQEERIANATNKQVHLFQAAAQDNNFASNSAFITKGQISGSTPTIQFLPPPETSKVWQIPHTRHHHHHH"}},
  "key": {"[1]": {"biological_target": "T1, influenza A/WSN/33 (H1N1) NP protein (influenza virus A/WSN/33 (H1N1), UniProt P15682 1-498)", "T1 sequence (P15682 whole entry)": "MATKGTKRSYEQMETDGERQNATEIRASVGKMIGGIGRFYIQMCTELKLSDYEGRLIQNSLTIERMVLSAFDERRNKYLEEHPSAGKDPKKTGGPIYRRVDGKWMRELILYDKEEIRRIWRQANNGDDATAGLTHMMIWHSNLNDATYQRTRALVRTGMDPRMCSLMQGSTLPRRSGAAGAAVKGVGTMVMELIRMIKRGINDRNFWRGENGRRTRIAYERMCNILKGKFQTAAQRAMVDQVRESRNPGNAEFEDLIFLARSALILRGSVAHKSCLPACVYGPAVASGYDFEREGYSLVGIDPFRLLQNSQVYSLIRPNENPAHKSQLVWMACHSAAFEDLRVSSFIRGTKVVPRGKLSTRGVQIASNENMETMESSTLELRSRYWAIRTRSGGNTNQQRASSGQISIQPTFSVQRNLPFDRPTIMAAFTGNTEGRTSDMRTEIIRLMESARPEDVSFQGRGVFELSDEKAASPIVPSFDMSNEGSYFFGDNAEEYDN"}, "[2]": {"biological_target": "T1, influenza A/WSN/33 (H1N1) NP protein", "assay": "phage display panning (Ph.D.-7) on NP coated on MaxiSorp plates, 5 rounds"}},
  "data": [
    {"binder": "B1", "values": [
      {"measurement": "fold increase of the avidity (OPD, nm) over HAV-ANP 1 and PapMV VLPs", "setting": "[1]", "value": "~5", "unit": "fold"},
      {"measurement": "fold increase of the signal over PapMV HAV-ANP1 and PapMV VLPs", "setting": "[1]", "value": 5, "unit": "fold"}
    ]},
    {"binder": "FHEFWPT (also called ANP1)", "values": [
      {"measurement": "binding result", "setting": "[2]", "value": "binds"}
    ]}
  ]
}
